Measurements taken from patent US10117953B2, “Antibody drug conjugates” (Novartis AG, priority 2013, dated 2018).

Legend:
[1] = tested on: surface cKIT on GIST-T1 cells; assay: Ab-mediated internalization of surface cKIT by flow cytometry; assay type: cell-based, human; conditions: 10 ug/ml, 30 min to 24 hr at 37° C.
Experimental: The kinetics of cKIT antibody mediated internalization was evaluated by treating with antibody in a cell monolayer using a temperature shift method and flow cytometry readout. GIST-T1 (kindly provided by Dr. Takahiro Taguchi, Kochi U., Japan) cells were seeded at 2.5×10E5 cells/well in five 12-well tissue culture treated plates (BD Falcon 353043). The cells were incubated in a tissue culture incubator at 37° C. with 5% CO2 overnight. The following day medium was removed and replaced with 450 ul fresh medium. […] All cells were incubated for 1 hr on ice, followed by two washes with 1 mL 1× Phosphate buffered saline (PBS) and resuspended in 500 μl cell culture medium. Plates #2-5 were transferred to 37° C. and harvested at time points; 30 min, 2 hr, 4 hr and 24 hr at 37° C. with 5% CO2. 100 μl of cell dissociation buffer (Gibco Cat#13150-016, Life Technologies, Carlsbad, Calif.) was added to plate#1 (4° C. binding control) and incubated at 37° C. until cells were detached. […] The following day, all samples were analyzed using the BD FACSCanto II® equipment using a HTS system (BD Biosciences, San Jose, Calif.). Samples were analyzed with FlowJo software to obtain the Geometric Mean values of fluorescence for the Phyeoerythrin channel, FIG. 13A is a plot of % of initial cell surface binding vs […] at 37° C.×100.

[2] = tested on: cKIT phosphorylation in Mo7e and GIST T-1 cells; assay: Western blot for agonistic properties (15 minutes treatment); assay type: cell-based, human; conditions: 5 ug/ml
Experimental: To evaluate the potential agonistic properties of cKIT ADCs, 2×10^6 of GIST T-1 (kindly provided by Dr. Takahiro Taguchi, Kochi U., Japan) or Mo7e (DSMZ, ACC-104) cells were serum starved overnight at 37° C. with 5% CO2 (DMEM for GIST T-1 and RPMI for Mo7e supplemented with 0.1% FBS) in 6-well plate (NUNC catalog #14067). […] One well was designated as untreated (UT). Cells were harvested in 1 ml PBS. […] Lysates were then spun down for 40 mins at 12,000 rpm at 4° C. 20 μg of each sample was boiled for 10 min at 75° C. and loaded on a 12-well NuPAGEO 4-12% Bis-Tris gel (Life Technologies, NP0322BOX, Carlsbad, Calif.). After protein transfer to membrane blots, membranes were blocked in TBST-5% milk at room temperature for 1 hour and then probed with primary antibodies overnight at 4° C. Blots were washed in TBST (4×5 mins) on the next day. Blots were incubated in the secondary antibody (goat-anti rabbit-HRP 1:30,000, Santa Cruz) for 1 hr at room temperature. Blots were washed in TBST (4×5 mins) and developed. […]

[3] = tested on: primary human mast cells; assay: Mast cell degranulation (β-hexosaminidase release); assay type: cell-based; conditions: 0.05-100 nM, 90 min
Experimental: Primary human mast cells were cultured from peripheral human blood according to the methods described by Saito et al., (supra). […] Cells were then centrifuged and the supernatants were transferred into 96-well black-walled plates prior to the addition of the β-hexosaminidase substrate. Following 90 min incubation at 37° C., the reaction was stopped by the addition of tris-base (Sigma, Cat # T1503-500G, pH 12, St. Louis, Mo.) and the fluorescence intensity was recorded on the Envision® plate reader.

[4] = target: T1, human cKIT ECD (Homo sapiens, UniProt P10721); assay: SPR (Biacore 2000) affinity measurement; assay type: binding; conditions: Table 5
T1 construct: Human cKIT tr. variant 2 , residues 26-520-TAG; His6 (C); made in house; host or cells: HEK293 derived cell lines (293FS), transient transfection
T1 sequence (P10721 26-520 isoform P10721-2): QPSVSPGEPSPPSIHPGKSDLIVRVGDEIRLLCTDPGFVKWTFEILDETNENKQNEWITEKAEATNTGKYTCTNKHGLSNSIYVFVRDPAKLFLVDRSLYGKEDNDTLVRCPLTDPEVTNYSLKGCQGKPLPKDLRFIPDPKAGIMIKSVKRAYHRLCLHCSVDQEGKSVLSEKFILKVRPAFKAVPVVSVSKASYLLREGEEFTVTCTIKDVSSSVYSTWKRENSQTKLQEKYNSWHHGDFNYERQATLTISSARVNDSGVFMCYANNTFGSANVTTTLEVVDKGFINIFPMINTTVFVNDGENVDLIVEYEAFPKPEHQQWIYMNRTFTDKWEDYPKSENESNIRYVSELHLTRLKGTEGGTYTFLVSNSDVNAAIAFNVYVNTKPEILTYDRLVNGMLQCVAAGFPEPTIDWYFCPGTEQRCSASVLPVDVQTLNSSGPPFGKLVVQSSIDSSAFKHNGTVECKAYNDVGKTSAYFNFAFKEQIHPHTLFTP
Experimental: Affinity of the antibodies to cKIT species orthologues and also to cKIT was determined using SPR technology using a Biacore® 2000 instrument (GE Healthcare, Pittsburgh, Pa.) and with CM5 sensor chips.
Briefly, HBS-P (0.01 M HEPES, pH 7.4, 0.15 M NaCl, 0.005% Surfactant P20) supplemented with 2% Odyssey® blocking buffer (Li-Cor Biosciences, Lincoln, Nebr.) was used as the running buffer for all the experiments. The immobilization level and analyte interactions were measured by response unit (RU). Pilot experiments were performed to test and confirm the feasibility of the immobilization of the anti-human Fc antibody (Catalog number BR100839, GE Healthcare, Pittsburgh, Pa.) and the capture of the test antibodies.
For kinetic measurements, the experiments were performed in which the antibodies were captured to the sensor chip surface via the immobilized anti-human Fc antibody and the ability of the cKIT proteins to bind in free solution was determined. Briefly, 25 μg/ml of anti-human Fc antibody at pH 5 was immobilized on a CM5 sensor chip through amine coupling at flow rate of 5 μl/minute on all two flow cells to reach 10,500 RUs. 0.1-1 μg/ml of test antibodies were then injected at 10 μl/min for 1 minute. Captured levels of the antibodies were generally kept below 200 RUs. […]

Sequence of surface cKIT on GIST-T1 cells (P10721 26-509 limits assumed): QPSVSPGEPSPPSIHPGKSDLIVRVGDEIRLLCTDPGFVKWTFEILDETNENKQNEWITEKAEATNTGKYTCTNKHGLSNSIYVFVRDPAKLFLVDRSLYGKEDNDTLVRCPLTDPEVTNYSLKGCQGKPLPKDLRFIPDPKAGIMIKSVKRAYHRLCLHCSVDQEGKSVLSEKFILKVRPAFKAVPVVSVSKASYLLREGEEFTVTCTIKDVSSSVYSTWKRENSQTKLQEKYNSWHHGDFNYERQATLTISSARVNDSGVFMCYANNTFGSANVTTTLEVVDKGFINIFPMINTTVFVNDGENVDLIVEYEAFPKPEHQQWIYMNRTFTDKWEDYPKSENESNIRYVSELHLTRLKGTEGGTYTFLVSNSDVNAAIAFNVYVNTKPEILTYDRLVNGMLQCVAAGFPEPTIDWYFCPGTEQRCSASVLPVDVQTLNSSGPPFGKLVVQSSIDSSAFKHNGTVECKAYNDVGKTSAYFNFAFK

B1: NEG085: anti-cKIT antibody of Table 1; VH SEQ ID NO 82, VL SEQ ID NO 91; derived from 9P3 (antibody, V domains shown)
VH: EVQLVESGGGLVQPGGSLRLSCAASGFAFSGYYMAWVRQAPGKGLEWVANINYPGSSTYYLDSVKGRFTISRDNAKNSLYLQMNSLRAEDTAVYYCARGDYYGTTYWYFDVWGQGTTVTVSS
VL: DIQMTQSPSSLSASVGDRVTITCRASQSISSYLNWYQQKPGKAPKLLIYYTSRLQSGVPSRFSGSGSGTDFTLTISSLQPEDFATYYCQQGRRLWSFGGGTKVEIK
internalization after binding cKIT on the cell surface [1]: rapidly internalized into the cell | downstream signaling (phospho ERK, phospho AKT) [2]: downstream signaling pathways are not affected | phosphorylation of cKIT ([2]; absence of ligand (SCF)): can mediate phosphorylation of cKIT in the absence of ligand (SCF) | mast cell degranulation [3]: do not induce mast cell degranulation of human primary mast cells ex vivo | reaction with human cKIT [4]: nanomolar level
